Results published in patent publication US20180028658A1 (NEW YORK BLOOD CENTER, published 2018).

B1: vc-MMAE-NIH45-46 G54W (NYBC-HC-001) (antibody, V domains shown)
VH: QVRLSQSGGQMKKPGESMRLSCRASGYEFLNCPINWIRLAPGRRPEWMGWLKPRWGAVNYARKFQGRVTMTRDVYSDTAFLELRSLTSDDTAVYFCTRGKYCTARDYYNWDFEHWGRGAPVTVSS
VL: EIVLTQSPATLSLSPGETAIISCRTSQSGSLAWYQQRPGQAPRLVIYSGSTRAAGIPDRFSGSRWGADYNLSISNLESGDFGVYYCQQYEFFGQGTKVQVDI
modifications: MC-vc-PAB-MMAE linker payload on cysteines reduced with TCEP (sites and number not stated)
B2: NIH45-46 G54W (antibody, V domains shown)
VH: B1 VH
VL: B1 VL
notes: Human IgG1; Obtained from the NIH AIDS Reagent Program and also made recombinantly (VH and VK genes in human b12 Igγ and Igκ backbone vectors, 293T cells); FITC-labelled in the uptake experiments; also called NIH45-45 G54W

Tests used:
[1] = biological target: T1, HIV-1 Env expressed on the surface of ACH-2 cells reactivated with TNF-α (HIV-1); assay: cell-based or functional assay
[2] = biological target: T2, BG505 SOSIP.664 gp140 trimer (HIV-1 BG505); assay: SPR (BIAcore)
T2 construct: domain: gp140; Provided by Dr. John P Moore; When cleaved, each protomer is a gp120 chain plus a gp41 ectodomain chain; also called BG505 SOSIP.646; cleavable version gp140 trimer

[3] = biological target: HIV-1 gp41 (strain not stated) (HIV-1); assay: method not given
[4] = biological target: T2, BG505 SOSIP.664 gp140 trimer; assay: method not given
[5] = biological target: T3, full-length gp120 monomer (HIV-1 (Yu2 by the materials, not named …, UniProt P35961 32-498)); assay: SPR (BIAcore); lower end of the stated KD range
T3 construct: domain: gp120; The tie to strain Yu2 is inferred from 'full-length Yu2 gp120 protein' in the materials. gp120IIIB and gp120BaL were also bought; General statements about 'gp120' are entered under this molecule; also called HIV-1 gp120 monomer; monomeric full-length gp120

[6] = biological target: T4, Recombinant gp41HXB2 (ecto-domain aa546 to 682) (HIV-1 HXB2, UniProt P04578 546-682); assay: ELISA on coated gp41HXB2, OD at 405 nm
T4 construct: range 546-682; Bought from Aviva System Biology Corp; also called gp41 from HIV-1 HXB2 ecto-domain

[7] = biological target: HIV-1 gp41 (strain not stated) (HIV-1); assay: SPR (BIAcore), Env protein immobilized on CM5 chip, antibody as analyte
[8] = biological target: T2, BG505 SOSIP.664 gp140 trimer; assay: as above
[9] = biological target: T3, full-length gp120 monomer; assay: as above
SF162 gp140 trimer = biological target: T5, SF162 gp140 trimer (HIV-1 SF162, UniProt P19550 32-675); assay: ELISA on coated SF162 gp140 trimer, OD at 405 nm, 1x PBS as blank
T5 construct: domain: gp140; Obtained from the NIH AIDS Reagent Program; also called non-cleavable version of gp140 trimer (SF162); uncleaved SF162 gp140 trimer

[10] = biological target: T3, full-length gp120 monomer; assay: ELISA on coated full-length gp120 monomer, OD at 405 nm, 1x PBS as blank
[11] = biological target: T2, BG505 SOSIP.664 gp140 trimer; assay: ELISA on coated BG505 SOSIP.664 gp140 trimer, OD at 405 nm, 1x PBS as blank
[12] = biological target: T1, HIV-1 Env expressed on the surface of …; assay: flow cytometry titration on activated ACH-2 cells, from 20 µg/ml in 1:3 dilutions, FITC second antibody

Binder | EC50 of cell killing, […]-BLUE cell viability assay on activated ACH-2 latent cells [1] | Kd [2] | Kd [3] | Kd [4] | Kd [5] | binding result [6] | Kd [7] | koff [7] | kon [7] | Kd [8] | koff [8] | kon [8] | Kd [9] | koff [9] | EC50 (read off the curve) (SF162 gp140 trimer) | EC50 (read off the curve) [10] | EC50 (read off the curve) [11] | EC50 [12]
B1 | 0.85 µg/mL |  |  |  |  |  |  |  |  |  |  |  |  |  |  |  |  | 
B2 |  | 0.23 to 0.29 nM | ~1 nM | ~0.1 nM | 0.11 to 0.17 nM | binds | 6.75 nM | 0.00461 s⁻¹ | 683000 M⁻¹ s⁻¹ | 0.267 nM | 5.37e-06 s⁻¹ | 20100 M⁻¹ s⁻¹ | 0.11 nM | 4.94e-06 s⁻¹ | ~0.2 µg/mL | ~0.5 µg/mL | ~0.01 µg/mL | 5.2 µg/mL
